The text below walks through data of patent US20240383984A1 (Genentech, published 2024).

Substitutions are numbered along the chain they refer to. Names and notes keep the numbering of the source.

The target of test [1] is T1, human FcRH5 protein fragment (soluble) (human, UniProt Q96RD9 16-851).
T1 construct: whole entry named; also called soluble human FcRH5; Human FcRH5 (BIACORE analyte)
T1 sequence: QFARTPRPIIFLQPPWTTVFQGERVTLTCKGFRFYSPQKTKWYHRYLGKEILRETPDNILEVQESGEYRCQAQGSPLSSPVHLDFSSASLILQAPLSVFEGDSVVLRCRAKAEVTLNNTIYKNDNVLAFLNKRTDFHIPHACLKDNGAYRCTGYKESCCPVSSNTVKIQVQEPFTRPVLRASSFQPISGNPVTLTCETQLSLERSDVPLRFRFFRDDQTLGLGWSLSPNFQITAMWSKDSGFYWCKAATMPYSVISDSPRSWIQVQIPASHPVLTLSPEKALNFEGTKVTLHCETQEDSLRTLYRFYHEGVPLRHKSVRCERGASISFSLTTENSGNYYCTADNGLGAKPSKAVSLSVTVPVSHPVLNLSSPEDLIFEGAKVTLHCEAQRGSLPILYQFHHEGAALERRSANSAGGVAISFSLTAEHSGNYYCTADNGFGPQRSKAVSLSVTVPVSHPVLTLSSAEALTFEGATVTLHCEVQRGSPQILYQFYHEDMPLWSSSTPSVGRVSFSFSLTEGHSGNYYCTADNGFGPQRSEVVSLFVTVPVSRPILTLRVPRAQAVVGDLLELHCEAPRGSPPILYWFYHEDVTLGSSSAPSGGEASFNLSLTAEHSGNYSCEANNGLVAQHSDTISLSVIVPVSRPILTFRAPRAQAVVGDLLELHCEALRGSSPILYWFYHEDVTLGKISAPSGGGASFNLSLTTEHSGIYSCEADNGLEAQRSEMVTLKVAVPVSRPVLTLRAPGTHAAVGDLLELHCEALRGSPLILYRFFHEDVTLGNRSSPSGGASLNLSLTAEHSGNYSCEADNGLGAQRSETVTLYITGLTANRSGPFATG
Kind of test: BIACORE, human IgG1, soluble human FcRH5.

In test [2] the target is T1, human FcRH5 protein fragment (soluble). The test is described as follows: SPR, hIgG capture, screening. The protocol:
(§1) Briefly, a human IgG capture surface was generated on a Series S CM5 chip using amine coupling and the human IgG capture kit (GE Life Sciences, Piscataway, NJ). Test antibodies were then captured on flow cells 2, 3, or 4, with flow cell 1 used as a reference. An FcRH5 protein fragment was used as the analyte, with a flow rate of […]. Between injections the capture surface was regenerated by a 30-second injection of 3M magnesium chloride or 10 mM glycine, pH 1.5. Interactions were assessed at 25° C. in 10 mM HEPES pH7.4, 150 mM NaCl, and 0.05% Tween 20 (HBSP). Reference data from the reference flow cell and from injection of buffer alone were subtracted prior to kinetic analysis. Kinetic information was calculated by fitting data to a 1:1 binding model. Reference subtraction and data fitting were performed using BIAevaluation software (GE Life Sciences, Piscataway, NJ).
(§2) For affinity screening of HVR-H2 Trp52 and Met64 variants (Table 7), antibodies were expressed by transient transfection of Expi293 cells and purified using tip columns that were custom packed with affinity resin MabSelect SuRe (Glygen Corp., Columbia, MD & GE Life Sciences, Piscataway, NJ). […] Binding of FcRH5 protein fragment to captured antibodies was monitored at 100 nM and 500 nM. Association and dissociation were monitored at a flow rate of 40 μl/min, for 180 s and 300 s, respectively.
Background: In SPR one partner is held on a chip, and binding of the other changes the refractive index at the surface.

The target is the same in test [3]. Kind of test: SPR (BIACORE), IgG captured via anti-human IgG, FcRH5 protein fragment as analyte (100 and 500 nM). The protocol: as §1, §2
Test [4] deals with T2, cynomolgus FcRH5 protein fragment (soluble) (cynomolgus monkey).
T2 construct: whole entry named; also called Cyno FcRH5 (BIACORE analyte)
T2 chain: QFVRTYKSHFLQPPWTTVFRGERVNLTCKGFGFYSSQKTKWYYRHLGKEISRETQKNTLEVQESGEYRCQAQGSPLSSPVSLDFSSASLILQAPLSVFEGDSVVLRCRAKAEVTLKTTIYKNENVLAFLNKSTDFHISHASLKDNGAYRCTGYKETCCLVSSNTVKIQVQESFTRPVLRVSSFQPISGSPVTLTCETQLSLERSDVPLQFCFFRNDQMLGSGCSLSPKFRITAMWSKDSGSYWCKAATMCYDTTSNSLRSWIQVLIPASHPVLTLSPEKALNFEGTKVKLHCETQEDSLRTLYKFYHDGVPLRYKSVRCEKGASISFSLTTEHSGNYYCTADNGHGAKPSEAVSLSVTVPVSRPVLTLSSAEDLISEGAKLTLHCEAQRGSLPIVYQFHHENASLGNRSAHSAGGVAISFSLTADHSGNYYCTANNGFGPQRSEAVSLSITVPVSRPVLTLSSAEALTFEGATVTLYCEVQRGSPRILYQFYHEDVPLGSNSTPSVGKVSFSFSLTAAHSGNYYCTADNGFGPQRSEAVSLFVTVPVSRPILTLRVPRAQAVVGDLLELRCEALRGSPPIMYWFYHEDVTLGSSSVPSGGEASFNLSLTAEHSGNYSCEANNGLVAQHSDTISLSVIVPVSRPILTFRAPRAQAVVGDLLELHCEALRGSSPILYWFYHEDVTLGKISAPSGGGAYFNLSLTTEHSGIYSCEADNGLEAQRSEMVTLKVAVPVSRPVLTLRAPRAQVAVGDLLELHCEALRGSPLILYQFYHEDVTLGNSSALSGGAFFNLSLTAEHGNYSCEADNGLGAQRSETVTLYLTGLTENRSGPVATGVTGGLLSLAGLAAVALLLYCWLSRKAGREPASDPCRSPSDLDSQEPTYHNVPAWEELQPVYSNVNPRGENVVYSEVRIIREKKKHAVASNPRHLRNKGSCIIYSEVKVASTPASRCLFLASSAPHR
The test is described as follows: SPR, hIgG capture, 1:1 model. The protocol: as §1
(§3) Kinetic characterization experiments were carried out (see Table 8). In these experiments, binding of soluble FcRH5 protein fragment to purified antibodies in human TDB antibody format was analyzed at six different non-zero concentrations (a 1:3 dilution series, one concentration injected twice as a replicate). Flow rate was set at 40 μl/min and association and dissociation monitored for 600 s.

Test [5] deals with T1, human FcRH5 protein fragment (soluble). The test is described as follows: SPR, hIgG capture, 1:1 model. How it is done:
as §1, §3

The target is the same in test [6]. The test is described as follows: BIACORE, TDB format.
Test [7] concerns the target T3, human FcRH1 (full-length, on SVT2 cells) (human, UniProt Q96LA6 17-429).
T3 construct: whole, on cells; also called SVT2-FcRH1
T3 sequence (looked up): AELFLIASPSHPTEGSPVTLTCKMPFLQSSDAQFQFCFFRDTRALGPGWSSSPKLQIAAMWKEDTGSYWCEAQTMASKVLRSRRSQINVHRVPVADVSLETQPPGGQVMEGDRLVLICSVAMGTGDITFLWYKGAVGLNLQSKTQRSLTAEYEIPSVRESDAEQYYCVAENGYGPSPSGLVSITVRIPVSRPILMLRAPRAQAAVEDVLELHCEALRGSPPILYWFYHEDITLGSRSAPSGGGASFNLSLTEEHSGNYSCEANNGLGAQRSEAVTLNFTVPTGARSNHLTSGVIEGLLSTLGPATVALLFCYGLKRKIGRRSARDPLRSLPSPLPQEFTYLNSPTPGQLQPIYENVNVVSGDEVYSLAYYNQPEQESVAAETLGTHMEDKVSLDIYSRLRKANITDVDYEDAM
The test is described as follows: FACS, SVT2 cells. How it is done:
(§4) Human FcRH5, cyno FcRH5, human FcRH1, FcRH2, FcRH3, and FcRH4 transfected mouse SVT2 cells were used to test binding and cross-reactivity of FcRH5 TDBs. The method was carried out as follows. Cultured SVT2 cells were lifted using non-enzyme cell dissociation buffer (Sigma, #C5914). 1×10⁵ cells were suspended in 100 μL and incubated with FcRH5 TDBs at 3 μg/ml. […] Cells were washed twice with FACS buffer before flow cytometry analysis was carried out on a FACSCalibur.
On the technique in general: In flow cytometry, cells or beads pass a laser one at a time.

Test [8] concerns the target T4, human FcRH4 (full-length, on SVT2 cells) (human, UniProt Q96PJ5 20-515).
T4 construct: whole, on cells; also called SVT2-FcRH4
T4 sequence (looked up): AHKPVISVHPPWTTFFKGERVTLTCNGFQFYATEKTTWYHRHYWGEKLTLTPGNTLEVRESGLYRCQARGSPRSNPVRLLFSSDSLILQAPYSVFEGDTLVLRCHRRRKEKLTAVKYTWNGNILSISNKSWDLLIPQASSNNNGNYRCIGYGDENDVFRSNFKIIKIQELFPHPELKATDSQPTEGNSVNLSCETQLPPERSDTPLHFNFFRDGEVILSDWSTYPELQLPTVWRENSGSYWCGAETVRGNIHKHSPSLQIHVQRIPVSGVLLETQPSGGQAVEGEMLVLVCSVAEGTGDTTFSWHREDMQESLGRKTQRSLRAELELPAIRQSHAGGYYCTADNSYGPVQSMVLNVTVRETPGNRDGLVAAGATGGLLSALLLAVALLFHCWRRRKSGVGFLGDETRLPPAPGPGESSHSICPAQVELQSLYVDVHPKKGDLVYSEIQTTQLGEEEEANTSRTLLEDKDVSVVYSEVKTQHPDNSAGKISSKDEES
Kind of test: FACS, SVT2 cells. How it is done:
as §4

B1: hu1G7.v85 (hIgG1) (antibody, V domains shown)
VH: EVQLVESGPGLVKPSETLSLTCTVSGFSLTRFGVHWVRQPPGKGLEWLGVIWRGGSTDYNAAFVSRLTISKDNSKNQVSLKLSSVTAADTAVYYCSNHYYGSSDYALDNWGQGTLVTVSS
VL: DIQMTQSPSSLSASVGDRVTITCKASQDVRNLVVWFQQKPGKAPKLLIYSGSYRYSGVPSRFSGSGSGTDFTLTISSLQPEDFATYYCQQHYSPPYTFGQGTKVEIK
notes: bivalent hIgG1; also called hu1G7.v1.4.M64V
What is called Kd is the constant that tells how readily two partners part at equilibrium. As a reminder, the koff is the rate constant with which the complex falls apart. Higher therefore signals a short-lived complex. Usually kon stands for a measure of how fast the partners come together. A low value points to slower complex formation. As for B1, the “Fold improvement over hu1G7.v1” value in test [1] stood at 17 fold. Further, the Kd in test [1] turned out to be 0.8 nM; in test [2], 2.5 nM; in test [3] it was 2.5 nM; in test [4], 7.2 nM; in test [5] it was 2.5 nM. The results for the koff in test [4] and in test [5] were 0.001 s⁻¹ and 0.002 s⁻¹, respectively. In addition, the figures for the kon in test [4] and in test [5] were 100000 M⁻¹ s⁻¹ and 600000 M⁻¹ s⁻¹, respectively.

B2: hu1G7.v1.4 (hIgG1) (antibody, V domains shown)
VH: B1 VH with V64M
VL: B1 VL
notes: hIgG1
In test [4], B2 returned a Kd of 7.7 nM, an off-rate constant (koff) of 0.001 s⁻¹ and a kon of 100000 M⁻¹ s⁻¹. In test [5], this molecule showed a Kd of 2.6 nM, an off-rate constant (koff) of 0.002 s⁻¹ and a kon of 700000 M⁻¹ s⁻¹.

B3: hu1G7.v93 (antibody, human IgG1, V domains shown)
VH: B1 VH with L29T, S103P
VL: B1 VL with R30S
notes: human IgG1
As to B3, in test [1], the “Fold improvement over hu1G7.v1” value came to 25.3 fold, the “Fold improvement over hu1G7.v86” value amounted to 2.5 fold and the dissociation constant Kd is 0.6 nM.

B4: hu1G7.v1.7/38E4.v1 TDB (bispecific antibody, V domains shown)
VH 1: B1 VH with L29T, V64M
VL 1: B1 VL with S52Y, S56T, S93Q
VH 2: EVQLVQSGAEVKKPGASVKVSCKASGFTFTSYYIHWVRQAPGQGLEWIGWIYPENDNTKYNEKFKDRVTITADTSTSTAYLELSSLRSEDTAVYYCARDGYSRYYFDYWGQGTLVTVSS
VL 2: DIVMTQSPDSLAVSLGERATINCKSSQSLLNSRTRKNYLAWYQQKPGQSPKLLIYWTSTRKSGVPDRFSGSGSGTDFTLTISSLQAEDVAVYYCKQSFILRTFGQGTKVEIK
notes: knob-into-hole TDB; also called 1G7.v1.7 TDB
For B4, binding in test [6] was put at a Kd of 0.6 nM. Besides, the binding result in test [7] and in test [8] was “no binding (tested: 3 µg/ml)” each time.

B5: hu1G7.v1.5/38E4.v1 TDB (bispecific antibody, V domains shown)
VH 1: B1 VH with V64M
VL 1: B1 VL with R30S, L32I, A43S, S52Y, S56T, H91Q, Y92F, S93Q
VH 2: B4 VH 2
VL 2: B4 VL 2
notes: knob-into-hole TDB; also called 1G7.v1.5 TDB
Regarding B5, the Kd in test [6] amounted to 1.1 nM. Further, the binding result in test [7] and in test [8] was “no binding (tested: 3 µg/ml)” in each case.

B6: hu1G7.v91 (antibody, human IgG1, V domains shown)
VH: B1 VH with L29T
VL: B1 VL with R30S, A43S
In the case of B6, binding in test [1] was put at a Kd of 0.7 nM.

B7: hu1G7.v92 (antibody, human IgG1, V domains shown)
VH: B1 VH with S103P
VL: B1 VL with R30S, A43S
notes: human IgG1
On to B7, for which, in test [1], the “Fold improvement over hu1G7.v1” value came to 15.9 fold, the “Fold improvement over hu1G7.v86” value came out at 1.5 fold and the Kd stood at 0.9 nM.
